Reference: patent US20110045489A1, “Polymerases for Incorporating Modified Nucleotides” (NEW ENGLAND BIOLABS, INC., priority 2008, published 2011)
Residue numbers refer to the chain shown, from its start. Names may count otherwise. One block for each molecule: values may come before it.

Test system: modified nucleotide
Test: Screen of DNA polymerase mutants for modified nucleotide incorporation
Assay type: biochemical
From the text: In order to determine the extent of 3′-modified nucleotide incorporation by archaeon DNA polymerases, the titration assay described by Gardner and Jack (2002) was used. In this assay, the efficiency of incorporation of chain terminators was judged by the size of the reaction products in a polymerization reaction. As the efficiency of chain-terminator incorporation increased, the average reaction product size decreased because polymerization was more often halted by terminator addition. By comparing the amount of terminator required to give the same spectrum of reaction products, the relative efficiency of incorporation of the test compounds with the different polymerases was determined.
A complex library of 9° N DNA polymerase mutants was screened for enhanced incorporation of 3′-azido-ddCTP. Several classes of 9° N DNA polymerase mutants were identified with enhanced terminator incorporation. 9° N exo-L408S/Y409A/P410V (Therminator III™, NEB, Inc., Ipswich, Mass.) was purified and characterized in more detail. 9° N DNA polymerase single mutants P410V, L408S, and Y409A and double mutants L408S/P410V, L408S/Y409A, and Y409A/P410V were also purified for comparison. Purification and characterization of DNA polymerase mutants was as described in Gardner and Jack, Nucleic Acids Res. 27:2545-2553 (1999).
A library of 9° N DNA polymerase mutants was constructed by PCR amplification of the polymerase genes using gene-specific primers or codon optimization and gene synthesis Czar et al. Trends Biotechnol 27(2): 63-72 (2009)). The ability to incorporate 3′-modified nucleotide terminators was evaluated by the titration assay for chain terminator incorporation efficiency as described by Gardner and Jack (2002).
Furthermore, the same assay was used to measure 3′-amino-ddCTP incorporation by 9° N exo-L408S/Y409A/P410V (FIG. 3) and to measure rates of incorporation (FIG. 4). Examples of mutants that increased modified nucleotide incorporation by at least two-fold were: […]

increase of modified nucleotide incorporation: at least two-fold
B1: Mma D153A/E155A/L417S/P419V: Methanococcus maripaludis DNA polymerase mutant (protein)
chain: MESLIDLDYNSDDLCIYLYLINSIIKEKDFKPYFYVNSTDKEQILEFLKDYEKKHKLDSEISKMIENIETVKKIVFDENYQEKELSKVTVKYPNNVKTVREILMEFERLYEYDIPFVRRYLIDNSVIPTSTWDFENNKKIDNKIPDFKTVSFAIAVYCNKEPNPKKDPIIMASFSSKDFNTVVSTKKFDHEKLEYVKDEKELIKRIIEILKEYDIIYTYNGDNFDFPYLKKRAESFGLELKLGKNDEKIKITKGGMNSKSYIPGRVHIDLYPIARRLLNLTKYRLENVTEALFDVKKVDVGHENIPKMWDNLDETLVEYSHQDAYYTQRIGEQFLPLEIMFSRVVNQSLYDINRMSSSQMVEYLLLKNSYKMGVIAPNRPSGKEYQKRIRSSYEGGYVKEPLKGIHEDIVSMDFLSSYVSIIMSHNLSPETIDCTCCSDEENGENEEILGHKFCKKSIGIIPKTLMDLINRRKKVKKVLREKAEKGEFDEEYQILDYEQRSIKVLANSHYGYLAFPMARWYSRDCAEITTHLGRQYIQKTIEEAENFGFKVIYADTDGFYSKWADDKEKLSKYELLEKTREFLKNINNTLPGEMELEFEGYFKRGIFVTKKKYALIDENEKITVKGLEVVRRDWSNVSKNTQKNVLNALLKEGSVENAKKVIQDTIKELKDGKVNNEDLLIHTQLTKRIEDYKTTAPHVEVAKKILKSGNRVNTGDVISYIITSGNKSISERAEILENAKNYDTNYYIENQILPPVIRLMEALGITKDELKDSKKQYTLHHFLK

increase of modified nucleotide incorporation: at least two-fold
B2: 9° N D141A/E143A/N491V/Y494H: 9° N DNA polymerase mutant (protein, UniProt Q56366 1-775, looked up, variant D141A E143A N491V Y494H)
DNA polymerase: MILDTDYITENGKPVIRVFKKENGEFKIEYDRTFEPYFYALLKDDSAIEDVKKVTAKRHGTVVKVKRAEKVQKKFLGRPIEVWKLYFNHPQDVPAIRDRIRAHPAVVDIYEYDIPFAKRYLIDKGLIPMEGDEELTMLAFAIATLYHEGEEFGTGPILMISYADGSEARVITWKKIDLPYVDVVSTEKEMIKRFLRVVREKDPDVLITYNGDNFDFAYLKKRCEELGIKFTLGRDGSEPKIQRMGDRFAVEVKGRIHFDLYPVIRRTINLPTYTLEAVYEAVFGKPKEKVYAEEIAQAWESGEGLERVARYSMEDAKVTYELGREFFPMEAQLSRLIGQSLWDVSRSSTGNLVEWFLLRKAYKRNELAPNKPDERELARRRGGYAGGYVKEPERGLWDNIVYLDFRSLYPSIIITHNVSPDTLNREGCKEYDVAPEVGHKFCKDFPGFIPSLLGDLLEERQKIKRKMKATVDPLEKKLLDYRQRAIKILAVSFHGYYGYAKARWYCKECAESVTAWGREYIEMVIRELEEKFGFKVLYADTDGLHATIPGADAETVKKKAKEFLKYINPKLPGLLELEYEGFYVRGFFVTKKKYAVIDEEGKITTRGLEIVRRDWSEIAKETQARVLEAILKHGDVEEAVRIVKEVTEKLSKYEVPPEKLVIHEQITRDLRDYKATGPHVAVAKRLAARGVKIRPGTVISYIVLKGSGRIGDRAIPADEFDPTKHRYDAEYYIENQVLPAVERILKAFGYRKEDLRYQKTKQVGLGAWLKVKGKK

increase of modified nucleotide incorporation: at least two-fold
B3: 9° N D141A/E143A/Y409A/R406S/L408R: 9° N DNA polymerase mutant (protein, UniProt Q56366 1-775, looked up, variant D141A E143A Y409A R406S L408R)
DNA polymerase: B2 DNA polymerase with R406S, L408R, Y409A, V491N, H494Y

increase of modified nucleotide incorporation: at least two-fold
B4: 9° N D141A/E143A/Y409A/R406T/L408R: 9° N DNA polymerase mutant (protein, UniProt Q56366 1-775, looked up, variant D141A E143A Y409A R406T L408R)
DNA polymerase: B2 DNA polymerase with R406T, L408R, Y409A, V491N, H494Y

increase of modified nucleotide incorporation: at least two-fold
B5: 9° N D141A/E143A/Y409A/R406V/L408Y: 9° N DNA polymerase mutant (protein, UniProt Q56366 1-775, looked up, variant D141A E143A Y409A R406V L408Y)
DNA polymerase: B2 DNA polymerase with R406V, L408Y, Y409A, V491N, H494Y

increase of modified nucleotide incorporation: at least two-fold
B6: 9° N D141A/E143A/R406L/L408E: 9° N DNA polymerase mutant (protein, UniProt Q56366 1-775, looked up, variant D141A E143A R406L L408E)
DNA polymerase: B2 DNA polymerase with R406L, L408E, V491N, H494Y

increase of modified nucleotide incorporation: at least two-fold
B7: 9° N D141A/E143A/R406P/L408G: 9° N DNA polymerase mutant (protein, UniProt Q56366 1-775, looked up, variant D141A E143A R406P L408G)
DNA polymerase: B2 DNA polymerase with R406P, L408G, V491N, H494Y

increase of modified nucleotide incorporation: at least two-fold
B8: 9° N D141A/E143A/R406S/L408R: 9° N DNA polymerase mutant (protein, UniProt Q56366 1-775, looked up, variant D141A E143A R406S L408R)
DNA polymerase: B2 DNA polymerase with R406S, L408R, V491N, H494Y

increase of modified nucleotide incorporation: at least two-fold
B9: 9° N D141A/E143A/Y409A/R406P/L408C: 9° N DNA polymerase mutant (protein, UniProt Q56366 1-775, looked up, variant D141A E143A Y409A R406P L408C)
DNA polymerase: B2 DNA polymerase with R406P, L408C, Y409A, V491N, H494Y

increase of modified nucleotide incorporation: at least two-fold
B10: 9° N D141A/E143A/Y409A/R406V: 9° N DNA polymerase mutant (protein, UniProt Q56366 1-775, looked up, variant D141A E143A Y409A R406V)
DNA polymerase: B2 DNA polymerase with R406V, Y409A, V491N, H494Y

increase of modified nucleotide incorporation: at least two-fold
B11: 9° N D141A/E143A/R406T/L408E: 9° N DNA polymerase mutant (protein, UniProt Q56366 1-775, looked up, variant D141A E143A R406T L408E)
DNA polymerase: B2 DNA polymerase with R406T, L408E, V491N, H494Y

increase of modified nucleotide incorporation: at least two-fold
B12: 9° N D141A/E143A/Y409A/R406V/A485L: 9° N DNA polymerase mutant (protein, UniProt Q56366 1-775, looked up, variant D141A E143A Y409A R406V A485L)
DNA polymerase: B2 DNA polymerase with R406V, Y409A, A485L, V491N, H494Y

increase of modified nucleotide incorporation: at least two-fold
B13: 9° N D141A/E143A/Y409A/R406Y/L408G: 9° N DNA polymerase mutant (protein, UniProt Q56366 1-775, looked up, variant D141A E143A Y409A R406Y L408G)
DNA polymerase: B2 DNA polymerase with R406Y, L408G, Y409A, V491N, H494Y

increase of modified nucleotide incorporation: at least two-fold
B14: 9° N D141A/E143A/R406T/L408R: 9° N DNA polymerase mutant (protein, UniProt Q56366 1-775, looked up, variant D141A E143A R406T L408R)
DNA polymerase: B2 DNA polymerase with R406T, L408R, V491N, H494Y

increase of modified nucleotide incorporation: at least two-fold
B15: 9° N D141A/E143A/R406V/L408R: 9° N DNA polymerase mutant (protein, UniProt Q56366 1-775, looked up, variant D141A E143A R406V L408R)
DNA polymerase: B2 DNA polymerase with R406V, L408R, V491N, H494Y

increase of modified nucleotide incorporation: at least two-fold
B16: 9° N D141A/E143A/Y409A/R406S/L408K: 9° N DNA polymerase mutant (protein, UniProt Q56366 1-775, looked up, variant D141A E143A Y409A R406S L408K)
DNA polymerase: B2 DNA polymerase with R406S, L408K, Y409A, V491N, H494Y

increase of modified nucleotide incorporation: at least two-fold
B17: 9° N D141A/E143A/R406E/L408G: 9° N DNA polymerase mutant (protein, UniProt Q56366 1-775, looked up, variant D141A E143A R406E L408G)
DNA polymerase: B2 DNA polymerase with R406E, L408G, V491N, H494Y

increase of modified nucleotide incorporation: at least two-fold
B18: 9° N D141A/E143A/Y409A/R406H/L408G: 9° N DNA polymerase mutant (protein, UniProt Q56366 1-775, looked up, variant D141A E143A Y409A R406H L408G)
DNA polymerase: B2 DNA polymerase with R406H, L408G, Y409A, V491N, H494Y

increase of modified nucleotide incorporation: at least two-fold
B19: 9° N D141A/E143A/Y409A/R406S/L408I: 9° N DNA polymerase mutant (protein, UniProt Q56366 1-775, looked up, variant D141A E143A Y409A R406S L408I)
DNA polymerase: B2 DNA polymerase with R406S, L408I, Y409A, V491N, H494Y

increase of modified nucleotide incorporation: at least two-fold
B20: 9° N D141A/E143A/Y409A/R406L/L408G: 9° N DNA polymerase mutant (protein, UniProt Q56366 1-775, looked up, variant D141A E143A Y409A R406L L408G)
DNA polymerase: B2 DNA polymerase with R406L, L408G, Y409A, V491N, H494Y

increase of modified nucleotide incorporation: at least two-fold
B21: 9° N exo-P410V: 9° N DNA polymerase mutant (protein, UniProt Q56366 1-775, looked up, variant D141A E143A P410V)
DNA polymerase: B2 DNA polymerase with P410V, V491N, H494Y

increase of modified nucleotide incorporation: at least two-fold
B22: 9° N D141A/E143A/Y409A/R406T/L408K: 9° N DNA polymerase mutant (protein, UniProt Q56366 1-775, looked up, variant D141A E143A Y409A R406T L408K)
DNA polymerase: B2 DNA polymerase with R406T, L408K, Y409A, V491N, H494Y
